Drawing on PMC5602300, this text covers apparent KD in the presence of 1 µM Ndc80 Bonsai complex and Kd for 2 substances.

Experiment [1] has as its target taxol-stabilized microtubules (pelleting assays) (UniProt P02550). Nature of the experiment: co-sedimentation; as a5 with increasing microtubules, in the presence of an added Ndc80 complex (1 µM Ndc80 Bonsai; Ndc80 Broccoli); apparent.
For experiment [2] the target is unchanged. Nature of the experiment: co-sedimentation; microtubule pelleting with increasing taxol-stabilized microtubules; ~5 nM Astrin-SKAP complex, BRB80 with 25 mM KCl, 0.5 mg/mL BSA, room temperature 10 min, glycerol cushion; α-SKAP Western blot; apparent. For orientation: Immunoblotting shows a protein as a band on a membrane.

On to “Astrin 1–693 complex (Astrin 1–693, SKAP, LC8, MYCBP) (from UniProt Q96R06 1-693; P63167 1-89; Q99417 1-103)”, for which the apparent KD in the presence of 1 µM Ndc80 Bonsai complex in experiment [1] was 1400 nM. Also, in experiment [2], the Kd came out at 3200 nM.

For “Astrin 465–693 complex (Astrin 465–693, SKAP, LC8, MYCBP) (from UniProt Q96R06 465-693; P63167 1-89; Q99417 1-103)”, the apparent KD in the presence of 1 µM Ndc80 Bonsai complex in experiment [1] was 1700 nM. Besides, the Kd in experiment [2] was 2200 nM.
